Like-named read-outs stand apart in the source and are kept apart here. Ends that are not written are not given here. rhodamine = not defined here
T1: GST-SH3 domain (derived from BIN1) (human)
T1 sequence (O00499 whole entry, looked up): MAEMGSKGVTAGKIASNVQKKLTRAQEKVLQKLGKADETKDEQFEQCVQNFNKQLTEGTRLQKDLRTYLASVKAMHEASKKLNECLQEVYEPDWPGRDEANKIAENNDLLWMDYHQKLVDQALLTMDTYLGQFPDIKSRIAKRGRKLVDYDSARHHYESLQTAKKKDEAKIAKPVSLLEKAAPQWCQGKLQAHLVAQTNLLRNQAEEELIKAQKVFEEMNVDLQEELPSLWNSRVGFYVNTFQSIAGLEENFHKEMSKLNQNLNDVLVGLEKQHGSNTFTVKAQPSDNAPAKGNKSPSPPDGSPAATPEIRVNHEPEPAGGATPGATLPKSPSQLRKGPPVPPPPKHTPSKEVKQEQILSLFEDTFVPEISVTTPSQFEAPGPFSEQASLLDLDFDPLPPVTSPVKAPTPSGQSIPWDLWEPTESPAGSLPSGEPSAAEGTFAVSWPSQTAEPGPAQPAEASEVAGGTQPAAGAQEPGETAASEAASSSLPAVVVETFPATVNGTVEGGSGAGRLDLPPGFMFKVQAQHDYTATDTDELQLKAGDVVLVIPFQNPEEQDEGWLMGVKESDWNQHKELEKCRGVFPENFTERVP

T2: Alexa488 labeled BIN1-FL (human, UniProt O00499-8 1-454, Alexa 488 C5-maleimide on endogenous cysteine residues)
T2 sequence (looked up): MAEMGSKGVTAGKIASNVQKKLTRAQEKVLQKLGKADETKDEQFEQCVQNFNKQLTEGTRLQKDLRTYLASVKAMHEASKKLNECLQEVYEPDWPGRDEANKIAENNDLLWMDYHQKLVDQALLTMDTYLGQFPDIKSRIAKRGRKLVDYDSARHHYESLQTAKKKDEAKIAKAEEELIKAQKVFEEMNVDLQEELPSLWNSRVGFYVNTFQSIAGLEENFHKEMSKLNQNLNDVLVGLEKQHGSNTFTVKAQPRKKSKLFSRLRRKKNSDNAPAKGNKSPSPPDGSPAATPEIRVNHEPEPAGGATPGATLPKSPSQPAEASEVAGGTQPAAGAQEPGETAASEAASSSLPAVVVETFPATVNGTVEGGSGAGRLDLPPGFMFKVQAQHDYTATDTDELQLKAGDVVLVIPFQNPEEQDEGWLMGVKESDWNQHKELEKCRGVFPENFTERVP


Key:
[1] = biological target: T1, GST-SH3 domain (derived from BIN1) (human); assay: ITC
[2] = biological target: T1, GST-SH3 domain (derived from BIN1) (human); assay: ITC; remark: listed apart in the source
[3] = biological target: T1, GST-SH3 domain (derived from BIN1) (human); assay: ITC; remark: listed apart in the source
Alexa488 labeled BIN1-FL = biological target: T2, Alexa488 labeled BIN1-FL; assay: recruitment of fluorescent peptide to protein-coated giant vesicles
[4] = biological target: T1, GST-SH3 domain (derived from BIN1) (human); assay: ITC; remark: listed apart in the source

Row | Binder | Kd [1] | stoichiometry N [1] | stoichiometry N [2] | Kd [3] | binding result (Alexa488 labeled BIN1-FL) | Kd [4]
1 | RKKSKLFSRLRRKKN [exon10 peptide] | 3.9 µM | 1 | 1 | 11.3 µM |  | 
2 | rhodamine-PPQIPSRPVRIPPGI (reading uncertain) [rhodamine-labeled PRD peptide] |  |  |  |  | binds | 
3 | PPQIPSRPVRIPPGI [dynamin 2-derived proline-rich domain peptide] | 13.7 µM |  |  |  |  | 68.3 µM

Reference: PMC4245986 (Biochemistry, 2014)
